pKd: −log10 of the molar value.

The test addresses Nrp1 immobilized on the biolayer interferometry biosensor (Homo sapiens (Human)) (UniProt O14786). The test can be described thus: biolayer interferometry, Nrp1 immobilized on the biosensor. In general terms: In BLI a coated tip is dipped into the sample, and binding shifts an interference pattern.

With “human glycyl-tRNA synthetase L129P (L129P-GlyRS^CMT2D) (from UniProt P41250 55-739) (enzyme)”, the pKd – broadly, the negative decadic logarithm of the Kd, by convention in mol/L – is 7.53.
To “human glycyl-tRNA synthetase P234KY (P234KY-GlyRS^CMT2D) (from UniProt P41250 37-739) (enzyme)” belongs 6.68.

The values are drawn from US20180313836A1.
